We go through 4 molecules from patent US20220073598A1 (KYMAB, published 2022).

Assay [1] addresses T1, recombinant human BMP6 (Peprotech 120-06) (human, UniProt P22004 397-513).
T1 construct: Biotinylated and immobilised for SPR; also called hBMP6; Bone Morphogenetic Protein 6
T1 sequence: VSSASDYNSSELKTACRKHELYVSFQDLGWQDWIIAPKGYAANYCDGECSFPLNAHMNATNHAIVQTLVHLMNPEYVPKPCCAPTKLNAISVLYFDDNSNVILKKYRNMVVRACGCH
Nature of the assay: HTRF competition: unlabelled antibody titrated (11 points, top 3 µM) against labelled CL-58838 (10 nM) for binding to labelled human BMP6 (32 nM). (In general: TR-FRET usually uses a lanthanide donor and a delayed reading to cut background.)

Assay [2] deals with T1, recombinant human BMP6 (Peprotech …). Nature of the assay: Western blot after non-reducing SDS-PAGE. How it is done: (§1) 2 μg/lane purified human BMP6 (Peprotech) separated by SDS-PAGE and stained with Coomassie blue (A) under reducing (R) and non-reducing (NR) conditions and Western blots from such gels blotted onto membranes and then probed with purified human anti-BMP6 antibodies as labelled.
(§2) Since BMP6 is a disulphide linked dimer the reducing condition should create monomers on the gel instead of dimers on the non-reduced gel.
(In general: Immunoblotting shows a protein as a band on a membrane.)

Assay [3] addresses T2, human BMP6 (Peprotech), reduced monomer on SDS-PAGE (human, UniProt P22004 397-513).
T2 construct: also called reduced BMP6 monomers; 18 kDa monomer
T2 sequence: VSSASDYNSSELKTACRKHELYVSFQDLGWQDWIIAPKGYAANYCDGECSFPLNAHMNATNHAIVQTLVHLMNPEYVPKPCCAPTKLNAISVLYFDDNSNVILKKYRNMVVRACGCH
The assay is described as follows: Western blot after reducing SDS-PAGE. How it is done:
as §1, §2

B1: CL-58756 (antibody, human IgG4 S228P, kappa, V domains shown)
VH: QVQLVESGGGLVKPGGSLRLSCAASGFTFSDYYMSWIRQAPGKGLEWVSYISISGSTIYYADSVKGRFTISRDNAKNSLYLQMNSLRAEDTAVYYCARRSSGWYDYWGQGTLVTVSS
VL: EIVLTQSPGTLSLSPGERATLSCRASQSVSSNYLAWYQQKPGQAPRLLIYGASIRATGIPDRFSGSGSGTDFTLTISRLEPEDFAVYCCHQYGSSPPTFGQGTKVEIKR
As to B1, the binding result in assay [1] is “binds”.

B2: CL-58713 (antibody, human IgG4 S228P, kappa, V domains shown)
VH: QVQLVESGGGLVKPGGSLRLSCAASGFTFSDYYMSWIRQAPGKGLEWVSYISISGITIYYADSVKGRFTISRDNARNSLYLQMNSLRAEDTAVYYCARRSSGWYDYWGQGTLVTVSS
VL: EIVLTQSPGTLSLSPGERATLSCRASQSVSYNYLAWYQQKPGQAPRLLIYGASIRATGIPDRFSGSGSGTDFTLTISRLEPEDFAVYCCHQYGSSPPTFGQGTKVEIKR
As for B2, in assay [1], the binding result is listed as “binds”.

B3: CL-58722 (antibody, human IgG4 S228P, kappa, V domains shown)
VH: QVQLVESGGGLVKPGGSLRLSCAASGFTFSDYYMSWIRQAPGKGLEWVSYISISGSTIYYADSVKGRFTISRDNAKNSLFLQMNSLRAEDTAVYYCARRSSGWYDYWGQGTLVTVSS
VL: EIVLTQSPGTLSLSPGERATLSCRASQSVSSNYLAWYQQKPGQAPRLLIYGASIRATGIPDRFSGSGSGTDFTLTISRLEPEDFAVYSCHQYGSSPPTFGQGTKVEIKR
For the molecule B3, the binding result in assay [1] is listed as “binds”.

B4: Antibody B (antibody, human IgG1, lambda, V domains shown)
VH: QVQLVESGGGLVKPGGSLRLSCAASGFTFSSYVVHWVRQAPGKGLEWVGRIRLETHGYAAEYAASVKGRFTISRDDSKNTLYLQMNSLKTEDTAVYYCARVERSKSGFDNWGQGTLVTVSS
VL: QSVLTQPPSVSGAPGQRVTISCTGSSSNIGAGYSVHWYQQLPGTAPKLLIYGQSERPSGVPDRFSGSKSGTSASLAITGLQAEDEADYYCQSWDSSQTLVVFGGGTKLTVLG
notes: also called anti-BMP6 Antibody B
For B4, the binding result in assay [2] and in assay [3] was “binds” throughout.
